# From patent publication US10251952B2, “Humanized anti-tau(pS422) antibody brain shuttles and use thereof” (Hoffmann-La Roche Inc., priority 2014, dated 2019)
# Residue numbers refer to the chain shown, from its start. Several values for one entry are separate records, joined by “and”; a condition that tells them apart may be missing. Equal entries are not always repeated.
# B1: VH14 with VL17: anti-human tau(pS422) antibody; VH SEQ ID NO: 50, VL SEQ ID NO: 37 (antibody, V domains shown)
# VH: QQLVESGGGLVQPGGSLRLSCAASGFSLSSNAINWVRQAPGKGLEWVGYIAVSGNTYYASWAKGRFTISRDNSKNTLYLQMNSLRAEDTAVYYCGKSNIWGPGTLVTVSS
# VL: DIQMTQSPSSLSASVGDRVTITCRSSQSVRTNKLAWFQQKPGQPPKRLIYSASTLDFGVPSRFSGSGSGTEFTLTISSLQPEDFATYYCLGYFDCSIADCVAFGGGTKVEIK
# modifications: humanized sequence
# B2: VH14 with VL15: anti-human tau(pS422) antibody; VH SEQ ID NO: 50, VL SEQ ID NO: 35 (antibody, V domains shown)
# VH: B1 VH
# VL: B1 VL with S25A, S28G, D56Q, F57S, C95S, C100S
# modifications: humanized sequence
# B3: VH14 with VL21: anti-human tau(pS422) antibody; VH SEQ ID NO: 50, VL SEQ ID NO: 16 (antibody, V domains shown)
# VH: B1 VH
# VL: AQVMTQSPSSLSASVGDRVTITCRSSQSVRTNKLAWFQQKPGQPPKRLIYSASTLDFGVPSRFSGSGSGTEFTLTISSLQPEDFATYYCLGYFDSSADIVAFGGGTKVEIK
# modifications: humanized sequence
# B4: VH14 with VL39: anti-human tau(pS422) antibody; VH SEQ ID NO: 50, VL SEQ ID NO: 42 (antibody, V domains shown)
# VH: B1 VH
# VL: B1 VL with K33R, C95P, C100P
# modifications: humanized sequence
# B5: VH14 with VL09: anti-human tau(pS422) antibody; VH SEQ ID NO: 50, VL SEQ ID NO: 33 (antibody, V domains shown)
# VH: B1 VH
# VL: B1 VL with S10T, S25A, F37Y, Q43K, P44A, D56E, F57S, E82D
# modifications: humanized sequence
# B6: VH14 with VL40: anti-human tau(pS422) antibody; VH SEQ ID NO: 50, VL SEQ ID NO: 43 (antibody, V domains shown)
# VH: B1 VH
# VL: B3 VL with A1D, Q2I, V3Q, K33R, S95P, I99P
# modifications: humanized sequence
# B7: VH14 with VL12: anti-human tau(pS422) antibody; VH SEQ ID NO: 50, VL SEQ ID NO: 34 (antibody, V domains shown)
# VH: B1 VH
# VL: B1 VL with S25A, S28G, D56Q, F57S
# modifications: humanized sequence
# B8: VH14 with VL28: anti-human tau(pS422) antibody; VH SEQ ID NO: 50, VL SEQ ID NO: 39 (antibody, V domains shown)
# VH: B1 VH
# VL: B3 VL with Q2I, V3Q, S10T, K33R, Q43K, P44A, E82D, S95P, I99P
# modifications: humanized sequence
# B9: VH14 with VL35: anti-human tau(pS422) antibody; VH SEQ ID NO: 50, VL SEQ ID NO: 41 (antibody, V domains shown)
# VH: B1 VH
# VL: B1 VL with D1A, P8T, K33R, C95S, C100I
# modifications: humanized sequence
# B10: VH14 with VL22: anti-human tau(pS422) antibody; VH SEQ ID NO: 50, VL SEQ ID NO: 17 (antibody, V domains shown)
# VH: B1 VH
# VL: B3 VL with K33R, F57Y
# modifications: humanized sequence
# B11: VH14 with VL33: anti-human tau(pS422) antibody; VH SEQ ID NO: 50, VL SEQ ID NO: 40 (antibody, V domains shown)
# VH: B1 VH
# VL: B1 VL with D1A, K33R, C95S, C100I
# modifications: humanized sequence
# B12: VH14 with VL00: anti-human tau(pS422) antibody; VH SEQ ID NO: 50, VL SEQ ID NO: 07 (antibody, listed as Oryctolagus cuniculus, V domains shown)
# VH: B1 VH
# VL: AQVLTQTTSPVSAAVGSTVTISCQSSQSVRTNKLAWFQQKPGQPPKRLIYSASTLDFGVPSRFSASGSGTQFTLTISDVQCDDAATYYCLGYFDCSIADCVAFGGGTEVVVK
# modifications: humanized sequence
# B13: VH14 with VL01: anti-human tau(pS422) antibody; VH SEQ ID NO: 50, VL SEQ ID NO: 32 (antibody, V domains shown)
# VH: B1 VH
# VL: B1 VL with P8T, S10T, R24Q, Q43K, P44A, E82D
# modifications: humanized sequence
# B14: VH14 with VL19: anti-human tau(pS422) antibody; VH SEQ ID NO: 50, VL SEQ ID NO: 38 (antibody, V domains shown)
# VH: B1 VH
# VL: B1 VL with D1A, I2Q, Q3V
# modifications: humanized sequence
# B15: VL17 with VH18: anti-human tau(pS422) antibody; VH SEQ ID NO: 52, VL SEQ ID NO: 37 (antibody, V domains shown)
# VH: B1 VH with S60D, W61S, A62V, P102Q
# VL: B1 VL
# modifications: humanized sequence
# Biological target: human tau(pS422) (Homo sapiens, UniProt P10636, S739X)
# Assay: BIAcore kinetic screening and kinetic rates of humanized VH/VL combinations
# Assay type: binding
# Settings: 25 °C; VH14 or VH20 with VL variants
# Procedure: In the following Table characteristics of the different humanized variants of the rabbit light chain variable domain in combination with the humanized heavy chain variable domains VH14 and VH20, respectively, are shown. Binding partner was human tau(pS422).
# Kinetic screening was performed according to Schraeml et al. (Schraeml, M. and M. Biehl, Methods Mol. Biol. 901 (2012) 171-181) on a BIAcore 4000 instrument, mounted with a BIAcore CM5 sensor. The BIAcore 4000 instrument was under the control of the software version V1.1. A BIAcore CM5 series S chip was mounted into the instrument and was hydrodynamically addressed and preconditioned according to the manufacturer's instructions. The instrument buffer was HBS-EP buffer (10 mM HEPES (pH 7.4), 150 mM NaCl, 1 mM EDTA, 0.05% (w/v) P20). An antibody capture system was prepared on the sensor surface. A polyclonal goat anti-human antibody with human IgG-Fc specificity (Jackson Lab.) was immobilized at 30 μg/ml in 10 mM sodium acetate buffer (pH 5) to spots 1, 2, 4 and 5 in the instrument's flow cells 1, 2, 3 and 4 at 10,000 RU using NHS/EDC chemistry. In each flow cell the antibodies were captured on spot 1 and spot 5. Spot 2 and spot 4 were used as reference spots. The sensor was deactivated with a 1 M ethanolamine solution. Humanized antibody derivatives were applied at concentrations between 44 nM and 70 nM in instrument buffer supplemented with 1 mg/ml CMD (carboxymethyldextrane). The antibodies were injected at a flow rate of 30 μl/min for 2 minutes. The capture level (CL) of the surface-presented antibodies was measured in rel. response units (RU). The analytes in solution, phosphorylated human tau protein, non-phosphorylated human tau protein and the phosphorylated human tau mutant protein T422S were injected at 300 nM for 3 minutes at a flow rate of 30 μl/minute. The dissociation was monitored for 5 minutes. The capture system was regenerated by a 1 minute injection of 10 mM glycine buffer, pH 1.7 at 30 μL/minute over all flow cells. Two report points, the recorded signal shortly before the end of the analyte injection, denoted as binding late (BL) and the recorded signal shortly before the end of the dissociation time, stability late (SL), were used to characterize the kinetic screening performance. Furthermore, the dissociation rate constant kd (1/s) was calculated according to a Langmuir model and the antibody/antigen complex half-life was calculated in minutes according to the formula ln(2)/(60*kd). The molar ratio (MR) was calculated according to the formula MR=(Binding Late (RU))/(Capture level (RU))*(MW(antibody)/(MW(antigen)). In case the sensor was configured with a suitable amount of antibody ligand capture level, each antibody should be able to functionally bind at least to one analyte in solution, which is represented by a molar ratio of MR=1.0. Then, the molar ratio is also an indicator for the valence mode of analyte binding. The maximum valence can be MR=2 for an antibody binding two analytes, one with each Fab valence.
# In another embodiment, kinetic rates were determined at 25° C. and 37° C. using the same experimental setup, but using multiple concentration series of each analyte in solution at 0 nM (buffer), 1.2 nM, 3.7 nM, 11.1 nM, 33.3 nM, 100 nM and 300 nM. From the concentration-dependent binding behavior the kinetic data was calculated using the BIAcore evaluation software according to the manufacturer's instructions and a Langmuir 1.1 model with RMAX global.
kd,t/2 diss,kd [1/s],Molecule
0.00303 s⁻¹ and 0.00239 s⁻¹,4 min and 5 min,–,B1
0.00363 s⁻¹,3 min,–,B2
0.00293 s⁻¹,4 min,–,B3
0.00522 s⁻¹,2 min,–,B4
–,5 min,2.35E−03. 1/s,B5
0.00301 s⁻¹,4 min,–,B6
0.00248 s⁻¹,5 min,–,B7
0.00384 s⁻¹,3 min,–,B8
0.011 s⁻¹,1 min,–,B9
0.0033 s⁻¹,4 min,–,B10
0.0102 s⁻¹,1 min,–,B11
0.00104 s⁻¹,11 min,–,B12
0.00382 s⁻¹,3 min,–,B13
0.00198 s⁻¹,6 min,–,B14

# Same assay, conditions: 25 °C; VL17 or VL19 with VH variants
kd,t/2 diss,Molecule
0.003 s⁻¹,4 min,B1
0.0023 s⁻¹,5 min,B15
0.002 s⁻¹,6 min,B14
